In the nanobody polyreactivity screen of Harvey et al. (2022):

Test: yeast display, Sf9 membrane polyspecificity reagent, FACS + sequencing; frameworks hold sequencing errors
Outline: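 In a synthetic yeast display library (Saccharomyces cerevisiae BJ5465), nanobody expression was induced with galactose for 36–48 hours. FACS gates were set low and high (top ~1%) using anti-HA fluorescence for expression and streptavidin fluorescence for binding of the Sf9 membrane reagent. Each polyreactivity label is drawn from the gate of origin.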

Sequence | polyreactivity (PSR sort gate)
QVQLVESGGGLVQAGGSLRLSCAASGRTFGWYAMGWYRQAPGKERELVAAITSGTSTYYADSVKGRFTISRDNAKNTVYLQMNSLKPEDTAVYYCAAQQGISNGTGVSATNPMDYWGQGTQVTVSS | low polyreactivity
QVQLVESGGGLVQAGGSLRLSCAASGRTFGWYAMGWYRQAPGKERELVAAITSGTSTYYADSVKGRFTISRDNAKNTVYLQMYSLKPEDTAVYYCAVDRGISVGYTRFDYWGQGTEVTVSS | low polyreactivity
QVQLVESGGGLVQAGGSLRLSCAASGRTFGWYTMGWYRHAPGKERELVAAISRSGTSTYYADSVKGRFTISRDNAKNTVYLQMHSLKPEDTAVYYCAQYVNARGGNDWGQGTLVTVSS | high polyreactivity
QVQLVESGGGLVQAGGSLRLSCAASGRTFGWYTMGWYRKAPGKVRELVAGISSSGGSTYYADSVKGRFTISRDNAKNTVYLQMNSLKPEDTAVYYCARETYPHGLYYRPYDYWGQGTQVTVSS | low polyreactivity
QVQLVESGGGLVQAGGSLRLSCAASGRTFGWYTMGWYRQAPGKEREFVAAISSSDTSTYYADSVKGRFTISRDNAKNTVYLQMNSLKPEDTAVYYCAADPPSWLWFVGYSYDYWGQGTQVTVTS | low polyreactivity
QVQLVESGGGLVQAGGSLRLSCAASGRTFGYNAMGWYRQAPGKERELVAAIRYSGGSTYYADSVKGRFTISRDNAKNTVYLQMNSLKPEDTAVYYCAKETRRYYRGYYYWGQGTQVTVSS | high polyreactivity
QVQLVESGGGLVQAGGSLRLSCAASGRTFGYNAMGWYRQAPGKERELVAAISSSGGSTYYADSVKGRFTISRDNAKNTVYLQMNSLKPEDTAVYYCATQGYSWAHGSDYWGQGTQVTVSS | low polyreactivity
QVQLVESGGGLVQAGGSLRLSCAASGRTFGYNAMGWYRQAPGKERELVATISWGCGSTYYADSLKWRFTISPDNAKNTVYLQMNSLKPEDTAVYYCNKVHYGRLHSYSRAIYGEDYWGQGTQVTVSS | high polyreactivity
QVQLVESGGGLVQAGGSLRLSCAASGRTFGYNAMGWYRQAPGKETELVAAIRYSGGSTYYADSVKGRFTISRDNSKNTVYLQMNSLKPEDTAVYYCAKETRRYYRGYYYWGQGTQVTVSS | high polyreactivity
QVQLVESGGGLVQAGGSLRLSCAASGRTFGYNVMGWYRQAPGKERELVADITSTSSTSYADSVKGRFTISRDNAKNTVYLQMNSLKPEDTAVYYCAAYYYFFRRYSWRLSGDYWGQGTQVTVSS | low polyreactivity
QVQLVESGGGLVQAGGSLRLSCAASGRTFGYYAMGWYIQAPGKERELVAAISSRGGSTYYADSVKGRFTISRDNAKNTVYLQMNSLKPEDTAVYYCNTRWTNIHPRYDYWGQGTQVTVSS | high polyreactivity
QVQLVESGGGLVQAGGSLRLSCAASGRTFGYYAMGWYRPAPGKERELVAAISSGGGTYYADSVKGRFTISRDNAKNTVYLQRNSLNPEASAVYYIAATGWLYWGQFYYWGQGTLVTVSS | low polyreactivity
QVQLVESGGGLVQAGGSLRLSCAASGRTFGYYAMGWYRQAPGKEREFVAAISFRTTSTYYADSVKGRFTISRDNAKNTVYLQMNSLKPEDTAVYYCNADWYLLSTWYDYWGQGTQVTVSS | high polyreactivity
QVQLVESGGGLVQAGGSLRLSCAASGRTFGYYAMGWYRQAPGKERELVAAISGSGGSTYYADSVKGRFTISRDNAKNTVYLQMKSLKPEDTAVYYCNVYPPYAMDYWGQGTQVTVSS | high polyreactivity
QVQLVESGGGLVQAGGSLRLSCAASGRTFGYYAMGWYRQAPGKERELVAAISRSGGSTYYADSVKGRFTISRDNAKNTVYLQMNSLKPEDTAVYYCAVKGYVKSDYWGQGTQVTVSS | high polyreactivity
QVQLVESGGGLVQAGGSLRLSCAASGRTFGYYAMGWYRQAPGKERELVAAISWSGGRTYYADSVKGRFTISRDNAKNTVYLQMNSLKPEDTAVYYCAAQTAGFWYDYWGQGTQVTVSS | high polyreactivity

Sequence | polyreactivity (PSR sort gate)
QVQLVESGGGLVQAGGSLRLSCAASGRTFGYYAMGWYRTAPGKERELVAAIRSTGSTNYADSVKGRFTISRDNAKNTVYLQMNSLKPEDTAVYYCNAKRRFRYDYWGQGTQVTVSS | low polyreactivity
QVQLVESGGGLVQAGGSLRLSCAASGRTFGYYTMGWSRQAPGKERDLVATISSDGTTNYADSVKGRFTISRDNAKNTVYLQMNSLKPEDTAVYYCNADFRLQYYYRIYDYWGQGTQVTVSS | low polyreactivity
QVQLVESGGGLVQAGGSLRLSCAASGRTFGYYVMGWYRQAPGKERELVAAISQSGGSTYYADSVKGRFTISRDNAKNTVYLQMNSLKPEDTAVYYCAKRGWRTFQGGYWGQGTQVTVSS | high polyreactivity
QVQLVESGGGLVQAGGSLRLSCAASGRTFHGYAMGWYRQAPGKERELVARINWSDGRTYYADSVKGRFTISRDNAKNTVYLQMNSLKPVDTAVYYCAADKNVSYAPAWFYYWGQGTQVTVSS | low polyreactivity
QVQLVESGGGLVQAGGSLRLSCAASGRTFHHNAMGWYRQAPGKERELVATITAGSGSTYYADSVKGRFTISRDNAKNTVYLQMNSQKPEDTAVYYCAARVGWNKRRYDYWGQCTQVTVSS | low polyreactivity
QVQLVESGGGLVQAGGSLRLSCAASGRTFHIYAMGWYRQAPGKERELVAAIRGRSGSTYYADSVKGRFTISRDNAKNTVYLQMNSLKPEDTAVYYCAVGRYPYGSARYRFDYWGQGTQVTVSS | high polyreactivity
QVQLVESGGGLVQAGGSLRLSCAASGRTFHKNAMGWYRQAPGQERELVAAISGSGGSTYYADSVKGRFTISRDNAKNTVYLQMNSLKPEDTAVYYCAADSSYYEEDYWGQGNQVTVSS | high polyreactivity
QVQLVESGGGLVQAGGSLRLSCAASGRTFHRYAMGWYRQAPGKERELVATISRGGSTNYADSVKGRFTISRDNAKNTVYLQMHSLKPEDTAVYYCAAESWIYWYPDTGDYWGQGTQVTLSS | high polyreactivity
QVQLVESGGGLVQAGGSLRLSCAASGRTFHSNAMGWYRKAPGKERELVAAIRFGGGSTYYADSVKGRFTISRDNAKNTVYLQMNSLKPEDTAVYYCNASPLWIGWEIVPVGSSHYDYWGQGTQVTVSS | low polyreactivity
QVQLVESGGGLVQAGGSLRLSCAASGRTFHSNDMGWYRQAPGKERELVAAISSSDGITYYADSVKGRFTISRDNAKNTVYLQMNSLKQEDNAVYYCAARRYRSGYYSFYFWGQGTQVTVSS | high polyreactivity
QVQLVESGGGLVQAGGSLRLSCAASGRTFHYNAMGWYRQAPGKERELVAAITRSGGSTYYADSVKGRFTISRDNAKNTVYLQMNSLKPEDTAVYYCNAAYLHPGPFDYWGQGTQVTVSS | low polyreactivity
QVQLVESGGGLVQAGGSLRLSCAASGRTFHYYAMGWYRQAPGKERELVAGISRRGGSTSYADSVKGRFTISRDNAKNTLYLQMNSLKPEDTAVYYCNADRVTFSWPVNYYWVDYWGQGTQVTVSS | high polyreactivity
QVQLVESGGGLVQAGGSLRLSCAASGRTFIGNVMGWSRQAPGKERELVAAITRSGGSTYYADSVKGRFTISRDNAKNTVYLQMNSLKPEDTAVYYCNAVRRTGGHGDYWGQGTQVTVSS | high polyreactivity
QVQLVESGGGLVQAGGSLRLSCAASGRTFIGYAMGWYRQAPGKERELVAAISSGGNTYYADSVKGRFTISRDNAKNTVYFQMNSLKPEDTAVYYCAAKGYRRVARYFIGDYWGQGTQVTVSS | low polyreactivity
QVQLVESGGGLVQAGGSLRLSCAASGRTFIIYTMGWYRQAPGKEREFVAAITRSGGGTYYADSVKGRFTISRDNAKNTVYLQMNSLKPEDTAVYYCAADRFYDQAYDYWGQGTQVTVSS | low polyreactivity
QVQLVESGGGLVQAGGSLRLSCAASGRTFIIYTMGWYRQAPGKEREFVAAITRSGGGTYYADSVKGRFTISRDNAKNTVYLQMNSLKPEDTAVYYFAADRFYDQAYDYWGQGTQVTVSS | low polyreactivity
